The target of data set [1] is T1, SMUG1 WT (UniProt Q53HV7).
T1 sequence: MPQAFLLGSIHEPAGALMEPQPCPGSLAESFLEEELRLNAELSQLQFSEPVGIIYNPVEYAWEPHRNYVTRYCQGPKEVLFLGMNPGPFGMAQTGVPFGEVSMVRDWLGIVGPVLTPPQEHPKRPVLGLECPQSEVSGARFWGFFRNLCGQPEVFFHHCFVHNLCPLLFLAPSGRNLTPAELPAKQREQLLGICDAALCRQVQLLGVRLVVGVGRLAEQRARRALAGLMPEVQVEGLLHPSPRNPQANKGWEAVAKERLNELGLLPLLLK
Briefly: EMSA. To be noted: apparent Kd; abasic substrate taken as THF37; tetrahydrofuran abasic analog (Z, written N) at position 20 of top strand, opposite T; EMSA: 8 nM DNA, 20 mM HEPES pH 7.5, 150 mM NaCl, 2 mM DTT (5 mM for SMUG1), 5% glycerol, 0.5 mg/ml BSA (0.5 mg/l [sic] for SMUG1), +/- 1.5 mM MgCl2, RT 20 min.

For data set [2], the target named is single-strand selective monofunctional DNA glycosylase (SMUG1), His-tagged (UniProt Q53HV7). Briefly: single-molecule DNA tightrope assay, dual-colour Qdot co-localisation; 605 Qdot-labelled His-SMUG1 (2.6 nM) injected first, then 705 Qdot-labelled Flag-UV-DDB (3.1 nM), on DNA tightropes with one abasic (THF) site every 2 kb; 25 mM HEPES pH 7.5, 150 mM NaCl, 0.1 mg/ml BSA, 50 nM biotin, 1 mM DTT; RT.

Data set [3] concerns the target T1, SMUG1 WT. Briefly: single-molecule DNA tightrope. The note with it: tetrahydrofuran abasic site every 2 kb, EMSA: 8 nM DNA, 20 mM HEPES pH 7.5, 150 mM NaCl, 2 mM DTT (5 mM for SMUG1), 5% glycerol, 0.5 mg/ml BSA (0.5 mg/l [sic] for SMUG1), +/- 1.5 mM MgCl2, RT 20 min. On the technique in general: In EMSA bound probe runs differently from free probe, usually more slowly.

Data set [4] deals with T2, UV-DDB (DDB1-DDB2 heterodimer) (UniProt Q16531;Q92466 1-1140;1-427). The data set is described as follows: EMSA; no Mg2+; EMSA: 8 nM DNA, 20 mM HEPES pH 7.5, 150 mM NaCl, 2 mM DTT (5 mM for SMUG1), 5% glycerol, 0.5 mg/ml BSA (0.5 mg/l [sic] for SMUG1), +/- 1.5 mM MgCl2, RT 20 min (30 min for displacement); 5% native gel, 1/2x TBE, 4 C. The note with it: protein: recombinant, tags: DDB1-6xHis, DDB2-Flag, copies: 1;1, label: 3'-6FAM on top strand, blunt.
T2 sequence (Q16531 whole entry, chain 1 of 2): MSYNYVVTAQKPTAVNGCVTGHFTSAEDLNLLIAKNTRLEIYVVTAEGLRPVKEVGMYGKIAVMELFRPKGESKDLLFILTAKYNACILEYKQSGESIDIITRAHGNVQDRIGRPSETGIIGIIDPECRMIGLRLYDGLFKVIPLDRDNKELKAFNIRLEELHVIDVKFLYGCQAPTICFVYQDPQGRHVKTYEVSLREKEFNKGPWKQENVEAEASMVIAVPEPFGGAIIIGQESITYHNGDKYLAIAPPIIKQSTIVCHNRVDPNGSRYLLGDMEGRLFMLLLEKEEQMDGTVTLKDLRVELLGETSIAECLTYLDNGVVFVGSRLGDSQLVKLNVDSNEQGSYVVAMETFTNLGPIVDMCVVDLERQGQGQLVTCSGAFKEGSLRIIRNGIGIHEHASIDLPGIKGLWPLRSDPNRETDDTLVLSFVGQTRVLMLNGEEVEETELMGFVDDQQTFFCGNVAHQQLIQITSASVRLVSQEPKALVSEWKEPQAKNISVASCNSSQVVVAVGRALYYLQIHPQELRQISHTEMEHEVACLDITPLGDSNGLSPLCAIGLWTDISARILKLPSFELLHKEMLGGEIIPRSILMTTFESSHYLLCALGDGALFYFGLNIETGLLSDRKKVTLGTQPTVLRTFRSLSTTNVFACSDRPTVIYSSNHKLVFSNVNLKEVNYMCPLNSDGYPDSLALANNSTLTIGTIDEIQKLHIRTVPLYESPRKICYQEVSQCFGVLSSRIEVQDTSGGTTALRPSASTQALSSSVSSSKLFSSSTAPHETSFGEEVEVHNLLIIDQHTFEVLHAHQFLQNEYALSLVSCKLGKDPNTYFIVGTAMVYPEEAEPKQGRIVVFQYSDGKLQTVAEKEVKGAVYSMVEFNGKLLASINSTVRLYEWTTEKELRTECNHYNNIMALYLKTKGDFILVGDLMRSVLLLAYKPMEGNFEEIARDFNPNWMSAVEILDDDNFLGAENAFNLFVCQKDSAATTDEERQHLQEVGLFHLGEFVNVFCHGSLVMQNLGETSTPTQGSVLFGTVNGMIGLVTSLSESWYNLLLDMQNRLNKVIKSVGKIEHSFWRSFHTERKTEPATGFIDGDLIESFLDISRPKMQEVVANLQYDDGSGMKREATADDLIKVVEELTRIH
T2 sequence (Q92466 whole entry, chain 2 of 2): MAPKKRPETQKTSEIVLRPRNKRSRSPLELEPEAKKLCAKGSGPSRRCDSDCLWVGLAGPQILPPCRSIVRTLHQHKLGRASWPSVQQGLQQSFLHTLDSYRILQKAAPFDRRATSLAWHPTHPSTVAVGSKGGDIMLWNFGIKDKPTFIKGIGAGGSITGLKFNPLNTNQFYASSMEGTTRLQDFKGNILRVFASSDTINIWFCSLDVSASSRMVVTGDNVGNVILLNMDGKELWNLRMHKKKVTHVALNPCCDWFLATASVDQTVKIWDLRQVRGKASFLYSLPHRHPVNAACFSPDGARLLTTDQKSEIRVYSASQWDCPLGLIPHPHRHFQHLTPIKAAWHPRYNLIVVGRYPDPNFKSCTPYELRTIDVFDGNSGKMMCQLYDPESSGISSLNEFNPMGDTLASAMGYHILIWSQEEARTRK

In data set [5] the target is T2, UV-DDB (DDB1-DDB2 heterodimer). The data set is described as follows: EMSA; 1.5 mM Mg2+; EMSA: 8 nM DNA, 20 mM HEPES pH 7.5, 150 mM NaCl, 2 mM DTT (5 mM for SMUG1), 5% glycerol, 0.5 mg/ml BSA (0.5 mg/l [sic] for SMUG1), +/- 1.5 mM MgCl2, RT 20 min (30 min for displacement); 5% native gel, 1/2x TBE, 4 C. To be noted: protein: recombinant, tags: DDB1-6xHis, DDB2-Flag, copies: 1;1, label: 3'-6FAM on top strand, blunt.

Numbering of substitutions follows the chain as printed.

As for “CCGAGTCATTCCTGCAGCGNGTCCATGGGAGTCAAAT / ATTTGACTCCCATGGACTCGCTGCAGGAATGACTCGG [THF37]”, the Kd with SMUG1 WT [1] is 65 nM.

In data set [2], “UV-damaged DNA-binding protein (UV-DDB), DDB1-6xHis/DDB2-Flag heterodimer (from UniProt Q16531 1-1140; Q92466 1-427) (complex)” gave a percent of all particles co-localised on abasic DNA of 15.6%. Consider “DNA tightrope with one THF site every 2 kb”, for which the binding with SMUG1 WT [3] (bound half-life with equimolar unlabeled UV-DDB, Qdot-labeled SMUG1) came to 580 s; with SMUG1 WT [3] (bound half-life, SMUG1 alone, Qdot-labeled), 4950 s.

B1: dU:dA37 (dsDNA)
DNA 1: CCGAGTCATTCCTGCAGCGAGUCCATGGGAGTCAAAT
DNA 2: ATTTGACTCCCATGGACTCGCTGCAGGAATGACTCGG
modifications: dU at position 22 of top strand, opposite dA
B1: the Kd in data set [4] amounted to 15 ± 1 nM; in data set [5] it was 52 ± 3.4 nM.

B2: UD37 (undamaged) (dsDNA)
DNA 1: B1 DNA 1 with U22T
DNA 2: B1 DNA 2
For the molecule B2, the Kd in data set [4] was 31 ± 2 nM; in data set [5], 125 ± 9.1 nM.

B3: 5-hmdU:dG37 (dsDNA)
DNA 1: B1 DNA 1
DNA 2: B1 DNA 2 with A16G
modifications: 5-hydroxymethyl-dU (X, written U) at position 22 of top strand, opposite dG
As for B3, the figures for the Kd in data set [4] (5-hmdU:G mispair) and in data set [5] (5-hmdU:G mispair) were 16 ± 1.5 nM and 27 ± 1.9 nM, respectively.

B4: 5-hmdU:dA37 (dsDNA)
DNA 1: B1 DNA 1
DNA 2: B1 DNA 2
modifications: 5-hydroxymethyl-dU (X, written U) at position 22 of top strand, opposite dA
Consider B4, for which the Kd in data set [4] was determined as 14 ± 1.1 nM; in data set [5], 48 ± 3 nM.

B5: dU:dG37 (dsDNA)
DNA 1: B1 DNA 1
DNA 2: B1 DNA 2 with A16G
modifications: dU at position 22 of top strand, opposite dG
For the molecule B5, the results for the Kd in data set [4] (U:G mispair) and in data set [5] (U:G mispair) were 18 ± 1.6 nM and 21 ± 2.1 nM, respectively.

The values are drawn from paper PMC10250209, “UV-DDB stimulates the activity of SMUG1 during base excision repair of 5-hydroxymethyl-2'-deoxyuridine moieties”.
